Tests used:
His-PABP-RRM1-4 = His-PABP-RRM1-4 (mouse, UniProt P29341 1-375); test: EMSA; EMSA: 10 mM Tris-HCl pH 7.8, 100 mM NaCl, 1 mM EDTA, 2% ficoll, 30 min on ice; blot: 10 mM Tris-HCl pH 7.5, 5 mM KCl, 2 mM MgCl2, room temperature; poly(U): 10; conditions: protein: recombinant; tags: His; label: 5' 32P; single strand
GST-Pdcd4 wt = molecular target: T1, GST-Pdcd4 wt (human, UniProt Q53EL6 1-469); test: as above; conditions: protein: recombinant; tags: GST; label: 5' 32P; single strand
T1 sequence: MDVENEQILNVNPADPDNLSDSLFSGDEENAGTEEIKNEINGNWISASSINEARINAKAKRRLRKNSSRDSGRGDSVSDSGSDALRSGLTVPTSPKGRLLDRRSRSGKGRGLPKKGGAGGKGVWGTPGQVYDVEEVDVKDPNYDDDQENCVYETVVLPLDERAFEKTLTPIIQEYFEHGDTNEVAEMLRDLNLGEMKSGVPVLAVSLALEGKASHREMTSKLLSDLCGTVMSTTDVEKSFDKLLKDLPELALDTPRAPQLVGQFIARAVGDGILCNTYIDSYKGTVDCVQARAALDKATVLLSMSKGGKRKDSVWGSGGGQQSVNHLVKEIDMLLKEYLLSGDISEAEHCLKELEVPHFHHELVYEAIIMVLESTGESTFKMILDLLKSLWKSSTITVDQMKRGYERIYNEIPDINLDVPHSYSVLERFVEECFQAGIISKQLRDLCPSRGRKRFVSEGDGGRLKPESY

Chain of His-PABP-RRM1-4 (P29341 1-375): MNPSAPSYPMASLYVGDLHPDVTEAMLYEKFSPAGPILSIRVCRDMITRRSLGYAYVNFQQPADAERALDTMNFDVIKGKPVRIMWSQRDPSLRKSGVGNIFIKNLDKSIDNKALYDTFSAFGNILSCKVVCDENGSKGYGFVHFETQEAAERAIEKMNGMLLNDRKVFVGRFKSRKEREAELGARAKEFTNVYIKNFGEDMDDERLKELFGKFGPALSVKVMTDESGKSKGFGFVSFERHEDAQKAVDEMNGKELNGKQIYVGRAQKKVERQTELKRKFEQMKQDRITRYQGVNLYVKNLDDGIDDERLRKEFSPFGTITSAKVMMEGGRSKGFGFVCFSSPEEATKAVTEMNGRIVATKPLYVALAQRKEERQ

Binder: AAAAAAAAAAAAAAAAAAAAAAAAA (ssRNA) [oligo(A)25]
- binding result (His-PABP-RRM1-4): binds
- binding result (GST-Pdcd4 wt): no binding

From publication PMC4176178, “An evolutionarily conserved interaction of tumor suppressor protein Pdcd4 with the poly(A)-binding protein contributes to translation suppression by Pdcd4”
